# Measurements as given in the Human Domainome abundance scans (Beltran et al. 2025).
# ± gives the uncertainty stated by the source.
# B1: Unconventional myosin-Ie, residues 1051 to 1108; numbered along this chain, Q12965 (parent)
# chain: PQVPQCKALYAYDAQDTDELSFNANDIIDIIKEDPSGWWTGRLRGKQGLFPNNYVTKI
# Variants of: B1
# Assay: abundance fitness (aPCA) (normalised: wild type 0, dead -1); higher = more abundant; growth selection in yeast, the domain comes from the species named
# Settings: Homo sapiens
row,Variant,abundance fitness
1,PQVPQCKALYAYDAQDTDELSFNANDIIDAIKEDPSGWWTGRLRGKQGLFPNNYVTKI,-0.78 ± 0.12
2,PQVPQCKALYAYDAQDTDELSFNANDIIDLIKEDPSGWWTGRLRGKQGLFPNNYVTKI,-0.077 ± 0.055
3,PQVPQCKALYAYDAQDTDELSFNANDIIDKIKEDPSGWWTGRLRGKQGLFPNNYVTKI,-1.04 ± 0.17
4,PQVPQCKALYAYDAQDTDELSFNANDIIDTIKEDPSGWWTGRLRGKQGLFPNNYVTKI,-0.745 ± 0.16
5,PQVPQCKALYAYDAQDTDELSFNANDIIDNIKEDPSGWWTGRLRGKQGLFPNNYVTKI,-0.85 ± 0.32
6,PQVPQCKALYAYDAQDTDELSFNANDIIDRIKEDPSGWWTGRLRGKQGLFPNNYVTKI,-1.01 ± 0.067
7,PQVPQCKALYAYDAQDTDELSFNANDIIDCIKEDPSGWWTGRLRGKQGLFPNNYVTKI,-0.378 ± 0.04
8,PQVPQCKALYAYDAQDTDELSFNANDIIDMIKEDPSGWWTGRLRGKQGLFPNNYVTKI,-0.465 ± 0.097
9,PQVPQCKALYAYDAQDTDELSFNANDIIDFIKEDPSGWWTGRLRGKQGLFPNNYVTKI,-0.736 ± 0.33
10,PQVPQCKALYAYDAQDTDELSFNANDIIDVIKEDPSGWWTGRLRGKQGLFPNNYVTKI,0.058 ± 0.054
11,PQVPQCKALYAYDAQDTDELSFNANDIIDDIKEDPSGWWTGRLRGKQGLFPNNYVTKI,-0.628 ± 0.24
12,PQVPQCKALYAYDAQDTDELSFNANDIIDQIKEDPSGWWTGRLRGKQGLFPNNYVTKI,-0.891 ± 0.19
13,PQVPQCKALYAYDAQDTDELSFNANDIIDEIKEDPSGWWTGRLRGKQGLFPNNYVTKI,-0.864 ± 0.069
14,PQVPQCKALYAYDAQDTDELSFNANDIIDWIKEDPSGWWTGRLRGKQGLFPNNYVTKI,-0.967 ± 0.14
15,PQVPQCKALYAYDAQDTDELSFNANDIIDSIKEDPSGWWTGRLRGKQGLFPNNYVTKI,-0.992 ± 0.13
16,PQVPQCKALYAYDAQDTDELSFNANDIIDGIKEDPSGWWTGRLRGKQGLFPNNYVTKI,-0.719 ± 0.071
17,PQVPQCKALYAYDAQDTDELSFNANDIIDYIKEDPSGWWTGRLRGKQGLFPNNYVTKI,-1 ± 0.14
18,PQVPQCKALYAYDAQDTDELSFNANDIIDHIKEDPSGWWTGRLRGKQGLFPNNYVTKI,-0.765 ± 0.21
19,PQVPQCKALYAYDAQDTDELSFNANDIIDIIKLDPSGWWTGRLRGKQGLFPNNYVTKI,-0.343 ± 0.052
20,PQVPQCKALYAYDAQDTDELSFNANDIIDIIKADPSGWWTGRLRGKQGLFPNNYVTKI,-0.236 ± 0.042
21,PQVPQCKALYAYDAQDTDELSFNANDIIDIIKCDPSGWWTGRLRGKQGLFPNNYVTKI,-0.231 ± 0.041
22,PQVPQCKALYAYDAQDTDELSFNANDIIDIIKQDPSGWWTGRLRGKQGLFPNNYVTKI,0.074 ± 0.087
23,PQVPQCKALYAYDAQDTDELSFNANDIIDIIKVDPSGWWTGRLRGKQGLFPNNYVTKI,-0.26 ± 0.045

row,Variant,abundance fitness
1,PQVPQCKALYAYDAQDTDELSFNANDIIDIIKWDPSGWWTGRLRGKQGLFPNNYVTKI,-0.819 ± 0.21
2,PQVPQCKALYAYDAQDTDELSFNANDIIDIIKGDPSGWWTGRLRGKQGLFPNNYVTKI,-0.935 ± 0.14
3,PQVPQCKALYAYDAQDTDELSFNANDIIDIIKKDPSGWWTGRLRGKQGLFPNNYVTKI,-0.368 ± 0.14
4,PQVPQCKALYAYDAQDTDELSFNANDIIDIIKSDPSGWWTGRLRGKQGLFPNNYVTKI,-0.398 ± 0.045
5,PQVPQCKALYAYDAQDTDELSFNANDIIDIIKNDPSGWWTGRLRGKQGLFPNNYVTKI,-0.576 ± 0.049
6,PQVPQCKALYAYDAQDTDELSFNANDIIDIIKMDPSGWWTGRLRGKQGLFPNNYVTKI,-0.02 ± 0.086
7,PQVPQCKALYAYDAQDTDELSFNANDIIDIIKDDPSGWWTGRLRGKQGLFPNNYVTKI,-0.271 ± 0.05
8,PQVPQCKALYAYDAQDTDELSFNANDIIDIIKHDPSGWWTGRLRGKQGLFPNNYVTKI,-0.758 ± 0.45
9,PQVPQCKALYAYDAQDTDELSFNANDIIDIIKFDPSGWWTGRLRGKQGLFPNNYVTKI,-0.376 ± 0.17
10,PQVPQCKALYAYDAQDTDELSFNANDIIDIIKPDPSGWWTGRLRGKQGLFPNNYVTKI,-0.751 ± 0.21
11,PQVPQCKALYAYDAQDTDELSFNANDIIDIIKIDPSGWWTGRLRGKQGLFPNNYVTKI,-0.185 ± 0.054
12,PQVPQCKALYAYDAQDTDELSFNANDIIDIYKEDPSGWWTGRLRGKQGLFPNNYVTKI,-0.25 ± 0.091
13,PQVPQCKALYAYDAQDTDELSFNANDIIDIKKEDPSGWWTGRLRGKQGLFPNNYVTKI,-0.478 ± 0.044
14,PQVPQCKALYAYDAQDTDELSFNANDIIDINKEDPSGWWTGRLRGKQGLFPNNYVTKI,-0.891 ± 0.45
15,PQVPQCKALYAYDAQDTDELSFNANDIIDIDKEDPSGWWTGRLRGKQGLFPNNYVTKI,-0.359 ± 0.073
16,PQVPQCKALYAYDAQDTDELSFNANDIIDIQKEDPSGWWTGRLRGKQGLFPNNYVTKI,-0.48 ± 0.08
17,PQVPQCKALYAYDAQDTDELSFNANDIIDIWKEDPSGWWTGRLRGKQGLFPNNYVTKI,-0.479 ± 0.042
18,PQVPQCKALYAYDAQDTDELSFNANDIIDIPKEDPSGWWTGRLRGKQGLFPNNYVTKI,-0.87 ± 0.15
19,PQVPQCKALYAYDAQDTDELSFNANDIIDIAKEDPSGWWTGRLRGKQGLFPNNYVTKI,-0.346 ± 0.035
20,PQVPQCKALYAYDAQDTDELSFNANDIIDISKEDPSGWWTGRLRGKQGLFPNNYVTKI,-0.58 ± 0.05
21,PQVPQCKALYAYDAQDTDELSFNANDIIDIEKEDPSGWWTGRLRGKQGLFPNNYVTKI,-0.26 ± 0.055
22,PQVPQCKALYAYDAQDTDELSFNANDIIDIFKEDPSGWWTGRLRGKQGLFPNNYVTKI,-0.462 ± 0.091
